Patent US20140079716A1 (Biogen, published 2014)
Several values for one entry are separate records, joined by “and”; a condition that tells them apart may be missing. Equal values may be shown once.

What was measured:
[1] = target: T1, soluble recombinant human lymphotoxin α1β2 (human, UniProt P01374 35-205, limits assumed); assay: cell-based or functional assay
T1 sequence 1: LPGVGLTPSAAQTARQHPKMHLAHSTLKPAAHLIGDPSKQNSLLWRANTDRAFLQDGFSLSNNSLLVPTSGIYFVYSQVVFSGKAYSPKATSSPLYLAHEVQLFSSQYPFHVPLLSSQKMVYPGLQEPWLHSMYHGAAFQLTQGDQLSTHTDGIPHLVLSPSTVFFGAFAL
T1 sequence 2: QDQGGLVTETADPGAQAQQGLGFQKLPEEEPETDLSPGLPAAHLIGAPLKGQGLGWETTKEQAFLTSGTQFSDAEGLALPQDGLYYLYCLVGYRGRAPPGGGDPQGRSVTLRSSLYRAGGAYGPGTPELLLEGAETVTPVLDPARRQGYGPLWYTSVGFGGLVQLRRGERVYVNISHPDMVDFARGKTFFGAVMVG

[2] = target: T2, LTα3 (soluble homotrimer) (UniProt P01374 35-205); assay: ELISA on plate-coated LTα3 (1 or 5 ug/ml)
T2 construct: Coated on ELISA plates at 1 or 5 ug/ml; also called LTa3
T2 sequence (looked up): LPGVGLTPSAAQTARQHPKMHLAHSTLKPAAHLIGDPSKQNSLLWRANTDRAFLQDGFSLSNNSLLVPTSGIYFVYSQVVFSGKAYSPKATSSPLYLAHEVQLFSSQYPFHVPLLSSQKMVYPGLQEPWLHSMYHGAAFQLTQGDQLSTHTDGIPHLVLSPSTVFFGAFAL
Experimental: For the LTa3 ELISA, microtiter plates were coated with LTα3 (1 or 5 ug/ml in PBS) then nonspecific binding sites were blocked with a 1% casein buffer. Samples (antibodies, receptor-Ig) were added and binding detected with HRP-conjugated anti-murine Ig antibodies. For assessment of ability of mAbs to block interaction between LTα3 and TNFR-hIg (p55), plates were coated with LTα3 and blocked as described above. Serial dilutions of antibodies were added to plate 30 minutes prior to TNFR-Ig addition. Binding of TNFR-hIg to plate-bound LTα3 was detected with an HPR conjugated anti-human Ig antibody.

[3] = target: T3, LTα1β2 on the surface of PMA-treated II-23 cells (UniProt P01374 35-205, limits assumed); assay: FACS, inhibition of biotin-LTβR-Ig binding to PMA-treated II-23 cells
T3 construct: whole, on cells; also called surface LT
T3 sequence 1: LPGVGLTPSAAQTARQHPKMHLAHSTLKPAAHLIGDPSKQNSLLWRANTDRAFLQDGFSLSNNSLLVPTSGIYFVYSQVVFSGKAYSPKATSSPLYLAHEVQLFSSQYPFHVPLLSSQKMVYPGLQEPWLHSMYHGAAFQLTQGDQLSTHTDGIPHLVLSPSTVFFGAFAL
T3 sequence 2: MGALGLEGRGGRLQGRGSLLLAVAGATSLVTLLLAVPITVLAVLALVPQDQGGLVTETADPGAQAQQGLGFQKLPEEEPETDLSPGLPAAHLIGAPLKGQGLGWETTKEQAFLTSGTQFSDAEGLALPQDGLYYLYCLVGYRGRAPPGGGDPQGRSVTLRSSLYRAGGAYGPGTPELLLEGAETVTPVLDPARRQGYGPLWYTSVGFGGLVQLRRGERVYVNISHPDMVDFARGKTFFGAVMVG
Experimental: (§1) II-23 cells were incubated with 50 ng/ml PMA for 4 hours at 37° C. 5% CO2. The cells were washed and 500,000 cells were added to each well of a 96-well plate. The antibody was diluted to the appropriate concentrations and added to the II-23 cells. After a 30 minute incubation period at 4° C., the biotin labeled LTβR-Ig is added to each well for a final concentration of 1 ug/ml. The cells are incubated at 4° C. for an additional 30 minutes, and then washed 3 times. Streptavidin-PE was diluted to 1/500 and added to each well and incubated for 1 hour at 4° C. The cells were washed once and read by FACS analysis. The mean fluorescence intensity is plotted versus antibody concentrations, and an IC50 is determined from a 4-parameter curve fit of the data.

[4] = target: T3, LTα1β2 on the surface of PMA-treated …; assay: FACS, inhibition of biotin-LTβR-Ig (1 ug/ml) binding to PMA-treated II-23 cells
Experimental: as §1

[5] = target: T3, LTα1β2 on the surface of PMA-treated …; assay: competition FACS (II-23 assay, as in FIG. 4): LT-expressing cells, varied antibody, labelled LTβR-Ig; MFI of bound LTβR-Ig
Experimental: as §1

[6] = target: T3, LTα1β2 on the surface of PMA-treated …; assay: competition FACS (II-23 assay): PMA-treated II-23 cells, varied antibody, then biotin-LTβR-Ig at 1 ug/ml, streptavidin-PE; MFI of bound LTβR-Ig
Experimental: as §1

[7] = target: T3, LTα1β2 on the surface of PMA-treated …; assay: competition FACS (II-23 assay, as in FIG. 4): LT-expressing cells, varied competitor, labelled LTβR-Ig; MFI of bound LTβR-Ig
Experimental: as §1

[8] = target: T3, LTα1β2 on the surface of PMA-treated …; assay: competition FACS (II-23 assay): PMA-treated II-23 cells, varied competitor, then biotin-LTβR-Ig at 1 ug/ml, streptavidin-PE; MFI of bound LTβR-Ig
Experimental: as §1

human LT = target: T4, human LT (human, UniProt P01374 35-205, limits assumed); assay: reagent description; assay not stated
T4 construct: also called human LTα1β2
T4 sequence 1: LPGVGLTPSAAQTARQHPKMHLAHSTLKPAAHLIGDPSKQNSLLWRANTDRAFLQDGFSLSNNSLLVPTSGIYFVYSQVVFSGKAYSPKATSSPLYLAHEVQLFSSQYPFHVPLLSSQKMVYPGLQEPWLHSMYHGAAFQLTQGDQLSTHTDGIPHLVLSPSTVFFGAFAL
T4 sequence 2: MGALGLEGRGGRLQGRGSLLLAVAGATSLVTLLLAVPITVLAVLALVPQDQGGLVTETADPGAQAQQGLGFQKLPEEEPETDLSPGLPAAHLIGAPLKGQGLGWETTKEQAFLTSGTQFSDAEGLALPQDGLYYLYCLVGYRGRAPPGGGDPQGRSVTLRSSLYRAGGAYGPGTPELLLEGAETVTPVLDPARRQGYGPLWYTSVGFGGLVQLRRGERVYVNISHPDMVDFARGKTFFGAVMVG

Binder	IC50 nM, inhibition of IL-8 release [1]	Maximum % Inhibition of IL-8 release [1]	binding result [2]	potency in an II-23 assay (% blockade) [3]	Maximum % Inhibition [4]	IC50 (read off the curve) [5]	IC50 (read off the curve) [6]	IC50 (read off the curve) [7]	IC50 (read off the curve) [8]	fold lower affinity than for murine LT (human LT)
A0D9 (antibody, V domains shown, Murine monoclonal antibody, kappa light chain; also called mAb A0D9; AOD9) VH: QVQLKQSGPGLVQPSQSLSITCTVSGFSLSTYGVHWVRQFPGKGLEWLGVIWRGGNTNYNAAFMSRLTISKDNSKSQVFFKMNSLQAKDTAIYYCVRNQIYDGYYDYAMDYWGQGTSVTVSS VL: DIKMTQSPSSMYASLGERVTITCKASQDINTYLNWLQQKPGKSPKTLIYRANRLVDGVPSRFSGRGSGQDYSLTISSLEYEDVGIYYCLHYDAFPWTFGGGTKLEIK	1.67 nM	94%	no binding	> 90%	92%	~0.2 µg/mL				
9B4 (antibody, V domains shown, Murine monoclonal antibody, kappa light chain; also called LT 9B4; LT9B4) VH: QVTLKESGPGILQPSQTLSLTCSFSGFSLSTSGMGVSWIRQPSGKGLEWLAHIYWDDDKRYNPSLRSRLTISKDTSRNQVFLKITSVDTADTATYYCARREGYYGSSFDFDVWGAGTTVTVSS VL: QIVLSQSPAILSASPGEKVTMTCRASSSVSYMIWYQQKPGSSPKPWIYATSSLASGVPTRFSGSGSGTSYSLTISRVEAADAATYYCQQWSYNPLTFGAGTKLELK	0.6 nM	95%	no binding	> 90%	99%		~0.9 nM			
LT107 (P5C4.1) (antibody, V domains shown, Murine monoclonal antibody, kappa light chain; also called mAb LT107) VH: QVQLKQSGPGLVQPSQNLSITCTVSGFSLTNYGIHWIRQPPGKGLEWLGVIWSGGSTDHNAAFISRLSISKDNSKSQVFFTMNSLEVDDTAIYYCARNRAYYRYEGGMDYWGQGTSVTVSS VL: DIKMTQSPSSMYASLGERVTITCKASQDINTYLNWFQQKPGKSPMTLIYRADRLLDGVPSRFSGSGSGQDYSLTISSLEDEDMGIYYCQQYDDFPLTFGAGTKLELK	0.53 nM	95%	no binding		80%	~0.03 µg/mL				
LT108 (P4F2.2) (antibody, V domains shown, also called mAb LT108) VH: QVQLKQSGPGLVQPSQSLSITCTVSGFSLTDYGIHWIRQPPGKGLEWLGVIWSGGSTDHNAVFTSRLNISKDNSKSQVFFKMNSLEPDDTAMYYCARNRAYYRYEGGMDYWGQGTSVTVSS VL: DIKMTQSPSSMYASLGERVTITCKASQDINTYLNWFQQKPGKSPMTLIYRADRLLDGVPSRFSGSGSGQDYSLTISSLEDEDMGIYYCQQYDDFPLTFGAGTKLELK	1.3 nM		no binding							
LT102 (P1G8.2) (antibody, IgG1, V domains shown, also called mAb LT102; LT012) VH: EVKLVESGGGLVKPGGSLKLSCAVSGFTFSDYYMYWIRQTPEKRLEWVATIGDGTSYTHYPDSVQGRFTISRDYATNNLYLQMTSLRSEDTALYYCARDLGTGPFAYWGQGTLVTVSA VL: DVLMTQTPRSLPVSLGDQASISCRSSQNIVHSNGNTYLEWYLQKPGQSPKLLIYKVSNRFSGVPDRFSGSGSGTDFTLKISRVEAEDLGVYYCFQGSHFPWTFGGGTKLEIK	0.406 nM and 0.991 nM	92%	no binding	> 90%	98%	~0.4 µg/mL	~3 nM			
LT105 (P2E9.7) (antibody, IgG1, V domains shown, The humanized versions were tested only for solubility; also called mAb LT105) VH: DVQLQESGPGLVKPSQSLSLTCSVTGYSITSGYYWNWIRQFPGNKLEGMGYISYDGSNNYNPSLKNRISITRDSSKNQFFLKLNSVTAEDSGTYYCARDAYSYGMDYWGQGTSVTVSS VL: DIVLTQSPASLAVSLGQRATISCRASESVDNYGISFMHWYQQKPGQPPKLLIYRASNLESGIPARFSGSGSRTDFTLTINPVETDDVATFYCQQSNKDPYTFGGGTKLEIK	1.06 nM and 0.52 nM	100%	no binding	> 90%	97%	~0.06 µg/mL	~1 nM			
LTβR-Ig (Fc fusion, UniProt P36941 31-227, looked up, biotin label in the II-23 assay (sites not given), also called LTBR-Ig; LTbR-Ig; not shown: Ig (Fc) part) QAVPPYASENQTCRDQEKEYYEPQHRICCSRCPPGTYVSAKCSRIRDTVCATCAENSYNEHWNYLTICQLCRPCDPVMGLEEIAPCTSKRKTQCRCQPGMFCAAWALECTHCELLSDCPPGTEAELKDEVGKGNNHCVPCKAGHFQNTSSPSARCQPHTRCENQGLVEAAPGTAQSDTTCKNPLEPLPPEMSGTMLM								~0.03 µg/mL	~0.8 nM	
Murine LTBR-mIgG1 (Fc fusion, UniProt P50284 31-223, looked up, also called mLTBR-mIgG1; mLTβR-mIg; not shown: murine IgG1 part) QLVPPYRIENQTCWDQDKEYYEPMHDVCCSRCPPGEFVFAVCSRSQDTVCKTCPHNSYNEHWNHLSTCQLCRPCDIVLGFEEVAPCTSDRKAECRCQPGMSCVYLDNECVHCEEERLVLCQPGTEAEVTDEIMDTDVNCVPCKPGHFQNTSSPRARCQPHTRCEIQGLVEAAPGTSYSDTICKNPPEPGAMLL										~2 fold
A1D5 (antibody, V domains shown, Murine monoclonal antibody, kappa light chain; also called mAb A1D5) VH: EVQLQQSGPELVKPGASVKISCKASGYSFTGYFMNWMRQSHGKSLEWIGRINPYNGDSFYNQKFKDKATLTVDKSSTTAHMELLSLTSEDSAVYYCGRGYDAMDYWGQGTSVTVSS VL: DIQMTQTTSSLSASLGDRVTISCRASQDISNFLTWYQQKPDGTVKLLIYYTSKLHSGVPSRFSGSGSGTDYSLTISNLEPGDIATYYCQQVSKFPWTFGGGAKLEIK	2.5 nM	94%	no binding	> 90%	92%	~0.6 µg/mL				
LT101 (P1G4.4) / LT103 (P1G9.1) (antibody, V domains shown, Murine monoclonal antibody, kappa light chain; also called LT101/LT103) VH: QVQLQQSGPELVKPGASVQISCKASGYVFSSSWMNWVKQRPGRGLEWIGRIYPGDGDTDYTGKFKGKATLTADKSSNTAYMQLSSLTSVDSAVYFCASGYFDFWGQGTPLTVSS VL: DITMTQSPSSMYASLGERVTITCKASQDMNNYLRWFQQKPGKSPQTLIFRANRLVDGVPSRFSGSGSGQDYSLTISSLEFEDMGIYYCLQHDKFPPTFGGGTKLEIK	1.11 nM	90%			77%	~0.04 µg/mL				
